Source: patent US20260265385A1 (ANAPTYSBIO, published 2026)
Numbering of substitutions follows the chain as printed. One block for each binder: values may come before it.

Experiments:
[1] = biological target: T1, recombinant cynomolgus IL-2Rβ (extracellular domain, Ala1-Thr215) (cynomolgus, UniProt Q38J85 27-240); assay: SPR, antibody captured on Protein A chip
T1 construct: extracellular domain; Analyte in SPR; also called cynomolgus LL-2Rβ; Cyno IL-2RB
T1 sequence (looked up): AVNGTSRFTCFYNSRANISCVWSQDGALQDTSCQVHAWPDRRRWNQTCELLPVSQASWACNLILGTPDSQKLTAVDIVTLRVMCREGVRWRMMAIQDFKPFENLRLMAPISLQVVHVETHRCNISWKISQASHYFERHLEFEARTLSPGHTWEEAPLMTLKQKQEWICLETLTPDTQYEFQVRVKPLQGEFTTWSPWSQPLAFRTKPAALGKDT
Method: (§1) Surface plasmon resonance (SPR) was used to determine the binding affinities. The M6-1625 and M10-1275 antibodies were captured onto a Cytiva Protein A Chip for 60 seconds at 0.5 μg/mL for 60 seconds. The antibodies were exposed to recombinant human LL-2Rβ or cynomolgus LL-2Rβ (corresponding to residues Ala1-Thr215 of the extracellular domains excluding the signal peptide) at typical concentrations ranging from 0.4 nM to 11 nM with typical 300 second associations and 1200 second dissociations using a BiacoreS200 instrument. Sensorgrams were fit globally using a 1:1 binding model in the Biacore T200 Evaluation Software to calculate on- and off-rates and KD values.

[2] = biological target: T2, recombinant human IL-2Rβ (extracellular domain, Ala1-Thr215) (human, UniProt P14784 27-240); assay: SPR, antibody captured on Protein A chip
T2 construct: extracellular domain; Analyte in SPR; Ala1-Thr215 is counted on the mature protein; also called human LL-2Rβ; Human IL-2RB
T2 sequence (looked up): T1 sequence (looked up) with R7Q, T66A, A74T, M83L, M92V, K127E, M158L
Method: as §1

- Kd [1]: 1.16 nM
- Kd [2]: 1.41 nM
B19: APE15300 (antibody, V domains shown)
VH: QVQLVQSGAEVKKPGASVKVSCKASGYAFVDNWIQWVRQAPGQGLEWMGEILPGSGSINHNEKFQGRVTMTRDTSTSTVYMELSSLRSEDTAVYYCTRHYGSFDYWGQGTTVTVSS
VL: DIQMTQSPSSLSASVGDRVTITCKASQNVGTDVAWYQQKPGKAPKSLIYSASYRYSGVPSRFSGSGSGTDFTLTISSLQPEDFATYFCHQYESYPFTFGQGTKLEIKR
notes: M6-p1625 series

- Kd [1]: 0.825 nM
- Kd [2]: 0.851 nM
B21: APE15296 (antibody, V domains shown)
VH: B19 VH with A28R, V30S, D31T, N32Q, Q35E
VL: B19 VL
notes: M6-p1625 series

- Kd [1]: 0.0821 nM
- Kd [2]: 0.0917 nM
B22: APE15371 (antibody, V domains shown)
VH: B19 VH with V18I, A28T, V30S, D31R, N32Y
VL: B19 VL
notes: M6-p1625 series

- Kd [1]: 0.305 nM
- Kd [2]: 0.261 nM
B23: APE15290 (antibody, V domains shown)
VH: B19 VH with A28P, V30T, D31S, N32Y
VL: B19 VL
notes: M6-p1625 series

- Kd [1]: 0.153 nM
- Kd [2]: 0.157 nM
B25: APE15297 (antibody, V domains shown)
VH: B19 VH with A28S, V30I, D31I, N32H
VL: B19 VL
notes: M6-p1625 series

- Kd [1]: 0.39 nM
- Kd [2]: 0.348 nM
B26: APE15299 (antibody, V domains shown)
VH: B19 VH with A28S, V30S, D31K, N32H
VL: B19 VL
notes: M6-p1625 series

- Kd [1]: 0.132 nM
- Kd [2]: 0.0981 nM
B27: APE15298 (antibody, V domains shown)
VH: B19 VH with A28I, V30S, D31R, N32Y, G56V
VL: B19 VL
notes: M6-p1625 series

- Kd [1]: 0.0982 nM
- Kd [2]: 0.11 nM
B29: APE15370 (antibody, V domains shown)
VH: B19 VH with A24V, A28T, V30S, D31R, N32Y
VL: B19 VL
notes: M6-p1625 series

- Kd [1]: 0.437 nM
- Kd [2]: 0.376 nM
B31: APE15292 (antibody, V domains shown)
VH: B19 VH with A28T, V30I, D31T, N32Y, Q35E
VL: B19 VL
notes: M6-p1625 series

- Kd [1]: 0.0634 nM
- Kd [2]: 0.0674 nM
B32: APE15369 (antibody, V domains shown)
VH: B19 VH with V18I, A28T, V30T, D31R, N32F
VL: B19 VL
notes: M6-p1625 series

- Kd [1]: 0.0783 nM
- Kd [2]: 0.0867 nM
B33: APE15368 (antibody, V domains shown)
VH: B19 VH with A24V, A28T, V30T, D31R, N32F
VL: B19 VL
notes: M6-p1625 series

- Kd [1]: 2.68 nM
- Kd [2]: 1.98 nM
B34: APE15291 (antibody, V domains shown)
VH: B19 VH with A28T, V30A, D31R, N32H, Q35G
VL: B19 VL
notes: M6-p1625 series

- Kd [1]: 0.199 nM
- Kd [2]: 0.172 nM
B35: APE15288 (antibody, V domains shown)
VH: B19 VH with A28S, V30R, D31R, N32H
VL: B19 VL
notes: M6-p1625 series

- Kd [1]: 0.359 nM
- Kd [2]: 0.351 nM
B36: APE15293 (antibody, V domains shown)
VH: B19 VH with A28T, V30S, D31S, N32H
VL: B19 VL
notes: M6-p1625 series

Further lines, the binder ahead of its results:

B1: APE14970 (antibody, V domains shown)
VH: EVQLVQSGAEVKKPGATVKISCKVSGFNFKDSLMHWVQQAPGKGLEWMGWIDSENGETEYAPGFQDRVTITADTSTDTAYMELSSLRSEDTAVYYCARGGPWFLSYWGQGTTVTVSS
VL: EIVMTQSPATLSVSPGERATLSCRASQIISNNLHWYQQKPGQAPRLLIIYGLQSISGIPARFSGSRSGTEFTLTISSLQSEDFAVYFCQQSNNWPWTFGQGTKLEIKR
notes: M10-1275 series
- Kd [1]: 0.014 nM
- Kd [2]: 0.074 nM

B2: APE15035 (antibody, V domains shown)
VH: B1 VH with N55S
VL: B1 VL
notes: M10-1275 series
- Kd [1]: 0.0194 nM
- Kd [2]: 0.147 nM

B3: APE15056 (antibody, V domains shown)
VH: B1 VH
VL: B1 VL with W94F
notes: M10-1275 series
- Kd [1]: 0.0198 nM
- Kd [2]: 0.122 nM

B4: APE15033 (antibody, V domains shown)
VH: B1 VH with N55Q
VL: B1 VL
notes: M10-1275 series
- Kd [1]: 0.0128 nM
- Kd [2]: 0.106 nM

B5: APE15037 (antibody, V domains shown)
VH: B1 VH with M34L
VL: B1 VL
notes: M10-1275 series
- Kd [1]: 0.0171 nM
- Kd [2]: 0.124 nM

B6: APE15034 (antibody, V domains shown)
VH: B1 VH with N55T
VL: B1 VL
notes: M10-1275 series
- Kd [1]: 0.0222 nM
- Kd [2]: 0.19 nM

B7: APE15057 (antibody, V domains shown)
VH: B1 VH
VL: B1 VL with I49Y, F87Y
notes: M10-1275 series
- Kd [1]: 0.024 nM
- Kd [2]: 0.144 nM

B8: APE15038 (antibody, V domains shown)
VH: B1 VH with M34I
VL: B1 VL
notes: M10-1275 series
- Kd [1]: 0.0185 nM
- Kd [2]: 0.12 nM

B9: APE15054 (antibody, V domains shown)
VH: B1 VH
VL: B1 VL with W96F
notes: M10-1275 series
- Kd [1]: 0.108 nM
- Kd [2]: 0.429 nM

B10: APE15036 (antibody, V domains shown)
VH: B1 VH with M34V
VL: B1 VL
notes: M10-1275 series
- Kd [1]: 0.0195 nM
- Kd [2]: 0.165 nM

B11: APE14969 (antibody, V domains shown)
VH: B1 VH
VL: B1 VL with R66G
notes: M10-1275 series
- Kd [1]: 0.018 nM
- Kd [2]: 0.187 nM

B12: APE15032 (antibody, V domains shown)
VH: B1 VH with N55A
VL: B1 VL
notes: M10-1275 series
- Kd [1]: 0.0124 nM
- Kd [2]: 0.0738 nM

B13: APE14971 (antibody, V domains shown)
VH: B1 VH
VL: B1 VL with I49Y, R66G, F87Y
notes: M10-1275 series
- Kd [1]: 0.026 nM
- Kd [2]: 0.278 nM

B14: APE15053 (antibody, V domains shown)
VH: B1 VH
VL: B1 VL with W96Y
notes: M10-1275 series
- Kd [1]: 0.0399 nM
- Kd [2]: 0.0915 nM

B15: APE15031 (antibody, V domains shown)
VH: B1 VH with N55H
VL: B1 VL
notes: M10-1275 series
- Kd [1]: 0.0189 nM
- Kd [2]: 0.108 nM

B16: APE15055 (antibody, V domains shown)
VH: B1 VH
VL: B1 VL with W94Y
notes: M10-1275 series
- Kd [1]: 0.0838 nM
- Kd [2]: 0.369 nM

B17: APE15280 (antibody, V domains shown)
VH: B19 VH with A28T, V30S, D31R, N32Q, Q35E
VL: B19 VL
notes: M6-p1625 series
- Kd [1]: 0.202 nM
- Kd [2]: 0.161 nM

B18: APE15285 (antibody, V domains shown)
VH: B19 VH with A28I, V30A, D31S
VL: B19 VL
notes: M6-p1625 series
- Kd [1]: 0.327 nM
- Kd [2]: 0.31 nM

B20: APE15284 (antibody, V domains shown)
VH: B19 VH with A28T, V30G, D31R, N32Y
VL: B19 VL
notes: M6-p1625 series
- Kd [1]: 0.0705 nM
- Kd [2]: 0.0566 nM

B24: APE15286 (antibody, V domains shown)
VH: B19 VH with A28L, V30S, D31R, N32Y
VL: B19 VL
notes: M6-p1625 series
- Kd [1]: 0.104 nM
- Kd [2]: 0.0873 nM

B28: APE15283 (antibody, V domains shown)
VH: B19 VH with A28K, V30S, D31S, N32Y
VL: B19 VL
notes: M6-p1625 series
- Kd [1]: 0.318 nM
- Kd [2]: 0.312 nM

B30: APE15287 (antibody, V domains shown)
VH: B19 VH with A28K, V30S, D31R, N32Y
VL: B19 VL
notes: M6-p1625 series
- Kd [1]: 0.186 nM
- Kd [2]: 0.169 nM
